Numbering of substitutions follows the chain as printed. Names and notes keep the numbering of the source.

First the molecules themselves.
B1: CE115HA000 N54Q one-arm antibody (antibody, human IgG1, kappa, L234A L235A, N297A, name in Kabat numbering)
heavy: QVQLVESGGGVVQPGRSLRLSCAASGFTFSNAWMHWVRQAPGKGLEWVAQIKAKSNQYATYYAESVKGRFTISRDDSKNSLYLQMNSLKTEDTAVYYCRYVHYGAYYGVDAWGQGTTVTVSSASTKGPSVFPLAPSSKSTSGGTAALGCLVKDYFPEPVTVSWNSGALTSGVHTFPAVLQSSGLYSLSSVVTVPSSSLGTQTYICNVNHKPSNTKVDKKVEPKSCDKTHTCPPCPAPEAAGGPSVFLFPPKPKDTLMISRTPEVTCVVVDVSHEDPEVKFNWYVDGVEVHNAKTKPREEQYASTYRVVSVLTVLHQDWLNGKEYKCKVSNKALPAPIEKTISKAKGQPREPQVYTLPPSRCELTKNQVSLSCAVKGFYPSDIAVEWESNGQPENNYKTTPPVLDSDGSFFLVSKLTVDKSRWQQGNVFSCSVMHEALHNHYTQKSLSLSPDYKDDDDK
chain: EPKSSDKTHTCPPCPAPELLGGPSVFLFPPKPKDTLMISRTPEVTCVVVDVSHEDPEVKFNWYVDGVEVHNAKTKPREEQYNSTYRVVSVLTVLHQDWLNGKEYKCKVSNKALPAPIEKTISKAKGQPREPQVCTLPPSRDELTKNQVSLWCLVKGFYPSDIAVEWESNGQPENNYKTTPPVLDSDGSFFLYSKLTVDKSRWQQGNVFSCSVMHEALHNRYTQKSLSLSP
light: DIVMTQSPLSLPVTPGEPASISCRSSQSLVHSNRNTYLHWYQQKPGQAPRLLIYKVSNRFSGVPDRFSGSGSGTDFTLKISRVEAEDVGVYYCGQGTQVPYTFGQGTKLEIKRTVAAPSVFIFPPSDEQLKSGTASVVCLLNNFYPREAKVQWKVDNALQSGNSQESVTEQDSKDSTYSLSSTLTLSKADYEKHKVYACEVTHQGLSSPVTKSFNRGEC
notes: one-arm antibody (one Fab)
B2: CE115HA000 Y97G one-arm antibody (antibody, human IgG1, kappa, L234A L235A, N297A, name in Kabat numbering)
heavy: B1 heavy with Q57N, Y103G
chain: B1 chain
light: B1 light
notes: one-arm antibody (one Fab)
B3: CE115HA000 V95K one-arm antibody (antibody, human IgG1, kappa, L234A L235A, N297A, name in Kabat numbering)
heavy: B1 heavy with Q57N, V101K
chain: B1 chain
light: B1 light
notes: one-arm antibody (one Fab)
B4: CE115HA000 Y100A one-arm antibody (antibody, human IgG1, kappa, L234A L235A, N297A, name in Kabat numbering)
heavy: B1 heavy with Q57N, Y106A
chain: B1 chain
light: B1 light
notes: one-arm antibody (one Fab)
B5: CE115HA000 V95E one-arm antibody (antibody, human IgG1, kappa, L234A L235A, N297A, name in Kabat numbering)
heavy: B1 heavy with Q57N, V101E
chain: B1 chain
light: B1 light
notes: one-arm antibody (one Fab)
B6: CE115HA000 V95D one-arm antibody (antibody, human IgG1, kappa, L234A L235A, N297A, name in Kabat numbering)
heavy: B1 heavy with Q57N, V101D
chain: B1 chain
light: B1 light
notes: one-arm antibody (one Fab)
B7: CE115HA000 Y59S one-arm antibody (antibody, human IgG1, kappa, L234A L235A, N297A, name in Kabat numbering)
heavy: B1 heavy with Q57N, Y62S
chain: B1 chain
light: B1 light
notes: one-arm antibody (one Fab)
B8: CE115HA000 Y58N one-arm antibody (antibody, human IgG1, kappa, L234A L235A, N297A, name in Kabat numbering)
heavy: B1 heavy with Q57N, Y61N
chain: B1 chain
light: B1 light
notes: one-arm antibody (one Fab)
B9: CE115HA000 Y97D one-arm antibody (antibody, human IgG1, kappa, L234A L235A, N297A, name in Kabat numbering)
heavy: B1 heavy with Q57N, Y103D
chain: B1 chain
light: B1 light
notes: one-arm antibody (one Fab)
B10: CE115HA000 V95S one-arm antibody (antibody, human IgG1, kappa, L234A L235A, N297A, name in Kabat numbering)
heavy: B1 heavy with Q57N, V101S
chain: B1 chain
light: B1 light
notes: one-arm antibody (one Fab)
B11: CE115HA000 T57N one-arm antibody (antibody, human IgG1, kappa, L234A L235A, N297A, name in Kabat numbering)
heavy: B1 heavy with Q57N, T60N
chain: B1 chain
light: B1 light
notes: one-arm antibody (one Fab)
B12: CE115HA000 Y58S one-arm antibody (antibody, human IgG1, kappa, L234A L235A, N297A, name in Kabat numbering)
heavy: B1 heavy with Q57N, Y61S
chain: B1 chain
light: B1 light
notes: one-arm antibody (one Fab)
B13: CE115HA000 N82aD one-arm antibody (antibody, human IgG1, kappa, L234A L235A, N297A, name in Kabat numbering)
heavy: B1 heavy with Q57N, N86D
chain: B1 chain
light: B1 light
notes: one-arm antibody (one Fab)
B14: CE115HA000 V100cP one-arm antibody (antibody, human IgG1, kappa, L234A L235A, N297A, name in Kabat numbering)
heavy: B1 heavy with Q57N, V109P
chain: B1 chain
light: B1 light
notes: one-arm antibody (one Fab)
B15: CE115HA000 Y97P one-arm antibody (antibody, human IgG1, kappa, L234A L235A, N297A, name in Kabat numbering)
heavy: B1 heavy with Q57N, Y103P
chain: B1 chain
light: B1 light
notes: one-arm antibody (one Fab)
B16: CE115HA000 Y58L one-arm antibody (antibody, human IgG1, kappa, L234A L235A, N297A, name in Kabat numbering)
heavy: B1 heavy with Q57N, Y61L
chain: B1 chain
light: B1 light
notes: one-arm antibody (one Fab)
B17: CE115HA000 V100cE one-arm antibody (antibody, human IgG1, kappa, L234A L235A, N297A, name in Kabat numbering)
heavy: B1 heavy with Q57N, V109E
chain: B1 chain
light: B1 light
notes: one-arm antibody (one Fab)
B18: CE115HA000 V95A one-arm antibody (antibody, human IgG1, kappa, L234A L235A, N297A, name in Kabat numbering)
heavy: B1 heavy with Q57N, V101A
chain: B1 chain
light: B1 light
notes: one-arm antibody (one Fab)
B19: CE115HA000 V100cD one-arm antibody (antibody, human IgG1, kappa, L234A L235A, N297A, name in Kabat numbering)
heavy: B1 heavy with Q57N, V109D
chain: B1 chain
light: B1 light
notes: one-arm antibody (one Fab)
B20: CE115HA000 Y55S one-arm antibody (antibody, human IgG1, kappa, L234A L235A, N297A, name in Kabat numbering)
heavy: B1 heavy with Q57N, Y58S
chain: B1 chain
light: B1 light
notes: one-arm antibody (one Fab)
B21: CE115HA000 Y97S one-arm antibody (antibody, human IgG1, kappa, L234A L235A, N297A, name in Kabat numbering)
heavy: B1 heavy with Q57N, Y103S
chain: B1 chain
light: B1 light
notes: one-arm antibody (one Fab)
B22: CE115HA000 S62P one-arm antibody (antibody, human IgG1, kappa, L234A L235A, N297A, name in Kabat numbering)
heavy: B1 heavy with Q57N, S65P
chain: B1 chain
light: B1 light
notes: one-arm antibody (one Fab)
B23: CE115HA000 N54S one-arm antibody (antibody, human IgG1, kappa, L234A L235A, N297A, name in Kabat numbering)
heavy: B1 heavy with Q57S
chain: B1 chain
light: B1 light
notes: one-arm antibody (one Fab)
B24: CE115HA000 V95G one-arm antibody (antibody, human IgG1, kappa, L234A L235A, N297A, name in Kabat numbering)
heavy: B1 heavy with Q57N, V101G
chain: B1 chain
light: B1 light
notes: one-arm antibody (one Fab)
B25: CE115HA000 N54Y one-arm antibody (antibody, human IgG1, kappa, L234A L235A, N297A, name in Kabat numbering)
heavy: B1 heavy with Q57Y
chain: B1 chain
light: B1 light
notes: one-arm antibody (one Fab)
B26: CE115HA000 N76S one-arm antibody (antibody, human IgG1, kappa, L234A L235A, N297A, name in Kabat numbering)
heavy: B1 heavy with Q57N, N79S
chain: B1 chain
light: B1 light
notes: one-arm antibody (one Fab)
B27: CE115HA000 Y58Q one-arm antibody (antibody, human IgG1, kappa, L234A L235A, N297A, name in Kabat numbering)
heavy: B1 heavy with Q57N, Y61Q
chain: B1 chain
light: B1 light
notes: one-arm antibody (one Fab)
B28: CE115HA000 S74P one-arm antibody (antibody, human IgG1, kappa, L234A L235A, N297A, name in Kabat numbering)
heavy: B1 heavy with Q57N, S77P
chain: B1 chain
light: B1 light
notes: one-arm antibody (one Fab)
B29: CE115HA000 Y97R one-arm antibody (antibody, human IgG1, kappa, L234A L235A, N297A, name in Kabat numbering)
heavy: B1 heavy with Q57N, Y103R
chain: B1 chain
light: B1 light
notes: one-arm antibody (one Fab)
B30: CE115HA000 Y97A one-arm antibody (antibody, human IgG1, kappa, L234A L235A, N297A, name in Kabat numbering)
heavy: B1 heavy with Q57N, Y103A
chain: B1 chain
light: B1 light
notes: one-arm antibody (one Fab)
B31: CE115HA000 Q105E one-arm antibody (antibody, human IgG1, kappa, L234A L235A, N297A, name in Kabat numbering)
heavy: B1 heavy with Q57N, Q114E
chain: B1 chain
light: B1 light
notes: one-arm antibody (one Fab)
B32: CE115HA000 S77T one-arm antibody (antibody, human IgG1, kappa, L234A L235A, N297A, name in Kabat numbering)
heavy: B1 heavy with Q57N, S80T
chain: B1 chain
light: B1 light
notes: one-arm antibody (one Fab)

T1 sequence (P07766 23-126): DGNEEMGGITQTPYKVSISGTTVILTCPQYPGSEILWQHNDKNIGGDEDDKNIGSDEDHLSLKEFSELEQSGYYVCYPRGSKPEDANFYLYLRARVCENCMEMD

The assay addresses T1, CD3 epsilon homodimer protein (UniProt P07766 23-126).
T1 construct: Immobilized on Sensor chip CM4 by amine coupling; construct not described; also called CD3 (CD3 epsilon)
Briefly: SPR Biacore T200, CD3 epsilon homodimer on CM4 chip, antibody as analyte.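 Further: Amine-coupled CD3 epsilon homodimer, run at 25 °C in HBS-EP+ buffer, ratio is bound amount of each single-residue H chain variant over that of the parent antibody.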 A general note: Surface plasmon resonance follows binding to a sensor surface in real time, without labels.
Turning to B1, the “ratio of amounts bound (Y/X vs CE115HA000)” value (from here on “ratio of amounts bound”) amounted to 0.84.

For the molecule B2, the “ratio of amounts bound” value amounted to 0.18. With B3 the figure was 0.64; with B4, 0.9; with B5, 0.24.

As to B6, the “ratio of amounts bound” value was 0.24.

In the case of B7, the “ratio of amounts bound” value was 0.94. In the case of B8 it was 0.33. B9: the “ratio of amounts bound” value is 0.24. In the case of B10 it was 0.22.

As for B11, the “ratio of amounts bound” value was found to be 0.97. In the case of B12 it was 0.18; in that of B13, 0.73. With B14 the figure was 0.2; with B15, 0.11.

As for B16, the “ratio of amounts bound” value stood at 0.27. With B17 the figure was 0.46; with B18, 0.11; with B19, 0.44.

For the molecule B20, the “ratio of amounts bound” value is 0.26.

As for B21, the “ratio of amounts bound” value is 0.18. As for B22, the “ratio of amounts bound” value turned out to be 1. With B23 the figure was 0.84. In the case of B24 it was 0.19. With B25 the figure was 1.09; with B26, 0.92; with B27, 0.19. B28: the “ratio of amounts bound” value is 0.91. In the case of B29 it was 0.27; in that of B30, 0.16; in that of B31, 0.94.

As for B32, the “ratio of amounts bound” value amounted to 0.9.
